Each block holds one molecule with its values, some of them ahead of it.
Assays:
[1] = biological target: LRP1 CR3-5 (Homo sapiens, UniProt Q07954); test: Binding of RAP d3 / MegaRAP1 d3 variants to LRP1 CR3-5; conditions: in words
Description: FIG. 1A-B depict binding of RAP d3, MegaRAP1 d3 (RAPv2A d3) and intermediate sequence variants to LRP2 CR89 and LRP1 CR3-5. FIG. 1A illustrates binding of RAP d3 mutants and RAPv2A d3 revertants to LRP2 CR89. FIG. 1B illustrates binding of RAP d3 mutants and RAPv2A d3 revertants to LRP1 CR3-5. Data were plotted and fitted by non-linear regression with the assumption of a single binding site (GraphPad Prism). Kd values with standard deviations were derived from the regression analysis.
Percent of maximum binding is the ratio of the OD at the highest concentration tested for each ligand and the highest OD measured for all such ligands at that concentration.

[2] = biological target: CR pairs of the second ligand-binding domain of human LRP1; conditions: all pairs except CR9-CR10; read-out: affinity of adjacent CR pairs for RAP d3; cited from earlier work

LRP1 CR3-5, sequence (Q07954 852-973 limits assumed): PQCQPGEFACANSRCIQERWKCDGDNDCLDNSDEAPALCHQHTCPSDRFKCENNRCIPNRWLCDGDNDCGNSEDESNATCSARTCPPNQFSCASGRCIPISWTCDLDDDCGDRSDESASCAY

binding to LRP1 CR domains [1]: fails to bind LRP1 CR domains
B1: MegaRAP1: RAPd3 variant; Table 2 positions 213 T, 217 K, 249 Y, 251 K, 256 A, 270 E (protein)
chain: GLDRLRRVSHQGYTTEAKFEEPRVIDLWDLAQSANLTDKELEAFREELKYFKAKIEAHNHYQKQLEIAHEELRHAESVGDGERVSRSREKHALLEGRTKELGYTVKKHLQDLSGRISRARHNEL

B2: RAP d3: third domain (d3) of receptor-associated protein, amino acids 200-323 of mature RAP; row 'RAP' of Table 2 (protein, listed as Homo sapiens)
chain: LDRLRRVSHQGYSTEAEFEEPRVIDLWDLAQSANLTDKELEAFREELKHFEAKIEKHNHYQKQLEIAHEKLRHAESVGDGERVSRSREKHALLEGRTKELGYTVKKHLQDLSGRISRARHNEL
Kd [2]: 1 to 5 nM

Reference: patent US8795627B2, “Treatment of liver disorders by administration of RAP conjugates” (Raptor Pharmaceuticals Inc., priority 2007, dated 2014)
